B1: Arf-GAP with Rho-GAP domain, ANK repeat and PH domain-containing protein 3 (Mus musculus), Q8R5G7 (parent)
chain: MAAPQDLDIAVWLALVHLEQYADTFRRHGLATAGAAQHLGHEELRHLGISATGHRKRILRLLRAGSAEGFLDSHLDNTMEPTPSPAPDAQPPKPVPKPRTVFGLSNPATAQRPGLSPIFWDPEVSRNSECTQRSSPLLPSSSEQPSVPNTMEMMPNAIYFGLDLRGRAQAAQDVTPDSSQATVPTPAFRPTTGTVHIMDPGCLYYGVQPVGIPGASDRRDGRGVCQERAEHRQDLETREDAGYASLELPGDSILSLPTQDAETSDDLISPYASFSSTADRPVPLLSGWLDKLSPQGNYVFQRRFVQFNGRSLMYFGSDKDPFPKGVIPLTAIEMTRSSKDNKFQVITGQRVFVFRTESEAQRDLWCSTLQSCLKEQRLLGHPRPPHPPRPLRTGTLELRGHKAKVFAALIPGELALYKSEQAFSLGIGICFIELQGCSVRETKSRSFDLLTPHRCFSFTAESGGARQSWAAALQEAVTETLSDYEVAEKVWSNPANRHCADCRASRPDWAAVNLGVVICKQCAGQHRALGSGISKVQSLKLDTSVWSNEIVQLFIVLGNDRANCFWAGALPPGEGLHPDSAPGPRGEFISRKYKLGLFRKPHPRHPDHSQLLQALCAAMAGPNLLKNMAQLLCVETSEGEEPLSPSALNGSLLSLLPSDSPGVYNEVVVPATYRGFLYCGSISNKAGAPPLRRGRDAPPRLWCVLGAALEMFASESSPEPLSLLQPQDIVCLGVSPPPADPGDLDRFPFSFELILTGGRIQHFATDGADSLEAWISAVGKWFSPLSCHQLLGPGLLRMGRLWLRSPSHAGLAPGLWLSGFGLLRGDHLFLCPAPGPGPPAPEDMVHLRRLQEISVVSAADTPDKKEHLVLVETGRTLYLQGEGRLDFAAWNTAIGGAAGGGGTGLQEQQMSRGDIPIIVDACISFVTQHGLRLEGVYRKGGARARSLRLLAEFRRDARSVKLRPREHFVEDVTDTLKRFFRELDDPVTSARLLPRWREAAELSQKNQRLEKYKEVISCLPRVNRRTLATLIGHLYRVQKCASLNQMCTRNLALLFAPSVFQTDGRGEHEVRVLQELIDGYISVFDIDSDQAAQIDLEVSLITTWKDVQLSQAGDLIMEVYIEQQLPDNCVTLKVSPTLTAEELTNQVLEMRGAASGTDLWVTFEILEHGELERPLHPKEKVLEQALQWCQLPEPCSASLLLRKVSMAHAGCLFTGVRRESPRVGLLRCREEPPRLLGNRFQERFFLVRGRCLLLLKEKKSSKPEREWSLEGAKVYLGIRKKLKPPTLWGFTLILEKMHLCLSCMDEEEMWDWTTSILKAQHDDQQSVVLRRRSSSDLARQKFGTMPLLPIRGDDSGATLLSANQTLRRLHNRRTLSMFFPMKSPQGSVEEQDELEEPVYEEPVYEEVGAFPELTKDTTFSSTWEWSAKSDPSLTSQRSFDQPPLSKASMLGHEERIPDPPPGPPSKSSSQARGSLEEQLLQELNNLILRKGEPASCPESSSQPTSPQAPSPTSLPTPTPSLPTQPPCTSNPPSSQPLT

Variants of: B1
Details: with src_human SRC

| effect of a mutation on the interaction | Variant |
| --- | --- |
| decreasing interaction | Y1399F;Y1404F |
